Assays:
[1] = molecular target: T1, flavodoxin (Fld); apo-Fld (Escherichia coli, UniProt P61949); assay: isothermal titration calorimetry; assay type: binding
T1 sequence (P61949 2-176): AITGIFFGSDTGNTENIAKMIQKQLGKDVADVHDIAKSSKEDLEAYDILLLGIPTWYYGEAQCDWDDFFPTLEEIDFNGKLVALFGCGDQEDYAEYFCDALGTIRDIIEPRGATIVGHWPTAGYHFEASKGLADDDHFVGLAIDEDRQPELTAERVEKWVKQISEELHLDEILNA

[2] = molecular target: NADP+-dependent flavodoxin oxidoreductase (FNR), Escherichia coli (E. coli) (UniProt P28861); assay: SPR
[3] = molecular target: pyruvate formate-lyase activating enzyme (PFL-AE), Escherichia coli (Escherichia coli) (UniProt P0A9N6); assay: SPR
Chain of pyruvate formate-lyase activating enzyme (PFL-AE), Escherichia coli (Escherichia coli) (P0A9N6 2-246): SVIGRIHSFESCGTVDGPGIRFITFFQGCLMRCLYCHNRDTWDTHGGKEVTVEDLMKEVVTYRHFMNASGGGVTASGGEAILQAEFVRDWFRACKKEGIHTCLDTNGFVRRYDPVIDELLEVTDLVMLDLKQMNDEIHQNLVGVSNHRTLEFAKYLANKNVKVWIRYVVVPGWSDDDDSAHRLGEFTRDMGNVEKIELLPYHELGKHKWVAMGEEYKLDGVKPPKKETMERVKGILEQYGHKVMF

Chain of NADP+-dependent flavodoxin oxidoreductase (FNR), Escherichia coli (E. coli) (P28861 whole entry): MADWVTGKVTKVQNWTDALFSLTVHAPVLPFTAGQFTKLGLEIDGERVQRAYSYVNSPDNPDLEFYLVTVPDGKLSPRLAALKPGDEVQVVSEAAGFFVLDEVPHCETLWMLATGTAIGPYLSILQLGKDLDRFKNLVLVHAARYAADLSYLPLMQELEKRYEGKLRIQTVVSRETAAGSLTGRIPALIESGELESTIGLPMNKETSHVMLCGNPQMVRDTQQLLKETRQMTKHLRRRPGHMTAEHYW

Row | Kd [1] [µM] | Molecule | Kd [2] [µM] | Kd [3] [µM]
1 | 0.0056 ± 0.0012 | Cc1cc2nc3c(=O)[nH]c(=O)nc-3n(C[C@H](O)[C@H](O)[C@H](O)COP(=O)(O)O)c2cc1C [FMN] | – | –
2 | – | holo-flavodoxin (Fld with bound FMN cofactor), Escherichia coli (from UniProt P61949 2-176) (natural protein) | 3.7 | 23.3

Source: paper PMC4012331 (Biochimica et biophysica acta, 2013)
